test: protease stability score; higher = more stable; yeast display proteolysis, trypsin and chymotrypsin;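 also: relative to predicted unfolded state with 0 unfolded-like and 1 meaning tenfold more protease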

Q: Which protease stability score does the source give for “DEERKESQKALELMLELFQTGDEEELSKFADPHVRLEFRVGDKRFEIHGREEVSRFFHELIWRIKNLRLTRHNDEVQGEKVIIHFELRQGDKRSEINIIAIKINGRWFIKHETVILL” here?
A: 1.62

Q: For “DEREEESERWVRLLLHYLLTGDFRRIEELVDPNARSIIGDKRHHGREIVVEWMTRYKNARVEVKDFHIQGDKLQLHVEVQIDGRTFKLDIELYKVNGKWLLRTLHVEEL”, which protease stability score is on record?
A: 1.44

Q: For “DEDDENNREMHDLSIRLFKTGDFDKIHKLMDPNAKLVIDIGDKHLHHHGREEASKRIFEIWHTLGVDHVHIKTHRHYGEKITIDMHLDINGQDTELIIVVLKINGRWLIQSVSMHFR”, which protease stability score is on record?
A: 1.35

Q: For “SEDEHRAEQLLRLWRETYTTGDERVMKELFDPNVRFDFNGREFIGREEAIRAFHEEVRHLGVDHVEIKEVEYRVINGQVHVHIESHFEVDGRRHRVHIESIVRKVNGKWRVEEVRIEIR”, which protease stability score is on record?
A: 0.969

Q: With “SEDHEISRRMLEMVLDSFDTGDEHIYKDLADPHAKIEVNGKDIHGWDTWASEMVERTERVPGVRKEIHIRDIKSQGDKIEIRGEVIIDFNGKTIRYRVLFVIEKINGRWFIKSEHIK” as the sequence, how does the protease stability score read?
A: 1.04

Q: Which protease stability score does the source give for “DEEERAARFVLELIIRTFDTGDEHTIHELLDPHVRLWVGDKTFHGREQITHLIQRHLEELGFDHVHVHHRTIDVQGEKIELHGELELRQGDKRDTRTIKIIVQKVDGRWRITIFEIE” here?
A: 1.48

Q: Which protease stability score does the source give for “HDDEEIIKREIDFFLEVLLTGDWRHLNELLDPHARLEIGDKRFHGREAVIKEIRTFIERFGVDHSEIDTVNIQGEKAEYKFTLKVGDKRHELHITMTKINGRWYITEVKFS” here?
A: 1.79

Q: With “DEIDNELKTALRRLLHTWMTGDEDSLERLADPNVRFHQGDKDMHGREHMVKWFKEMIDRFPNLRIHDFIISEVRFFDGKAELIGTVLRTYGDKTDEVDFTIISTKIDGQWRIHEIRIN” as the sequence, how does the protease stability score read?
A: 1.26

Q: Which protease stability score does the source give for “DEDREQAEEVIRSITEAMQTGDEHLWERMIDPNVRVIIDGRTYHGRLAWDLFRERYDVVHSSDSRIRHLRTYNGRVEVITQLRLDVEINGQRFETSMETHLIVLKFNGKWTVRRMEIH” here?
A: 1.67

Q: For “HKEHRDAHELLERWLRSSVTGDEDTLSELLDPNVKIEIGNKHVHGREEVSRHFSERAHRIDHVRLHVDDLYIQGEKVHVDLTLEINVGDWRQTIKVEYVVLKVNGRWRIHTIHER”, which protease stability score is on record?
A: 0.674

Q: With “SELHKFAEELSRRWFEMVLTGDEDSLNELADPNVRNDVNGRELIGRESFAKWVKELRIEDVRHKRSRIEVQGDKMIIHMDIESVVTIDGVRRDQRYEIIIISRKVNGRWLVHSVEFRVE” as the sequence, how does the protease stability score read?
A: 1.18

Q: For “SEDEKASKEAFELWRRVDETGDEHSLLRLLDPHVRLHIGDKHLHGREEVKRLLEELGVSRVHFDLRTIRVINGKVFVHGDFEVGDKRTHSEIVALKVDGRWINESIHIR”, which protease stability score is on record?
A: 0.806

Q: Which protease stability score does the source give for “DELEEETRRFAKHWVESLLTGDEDKLSRLMDPNVILDVNGREHIGWERAVHHLSRLLKELGAKHINVRLHELRIYDGVAEIDSRLQIIVGDKTEEHNVKLVITKVDGRWVVKSITIH” here?
A: 1.95

Q: With “DEDEELLREFFELLVEAELTGDEKEITRFADPNVILFQGEKEFHGRDFLIRLIMEIRIHHHELERFHLDVFNGRAEIHVDNRRDGWFDGKRIHTKVDLHIHSEKIDGRWLLKNINEILR” as the sequence, how does the protease stability score read?
A: 0.716

Q: For “DESEKDSHMASLHIIELIETGDWRELRELLDPRTRLHIGDKDIHGREEALRNIIRVWHHMRIHRVHIRSIRLQGDYVRVEFEVDGTIDGKHHRIEVEFVAQKIDGRWHLKSEIYH”, which protease stability score is on record?
A: 1.12

Q: With “DEEEEMIEKIFKHLVEALRTGDWRQLEKLFDPNVRIEIGDKHSVGREEAVKFLEEWRKRADHIEHIDFRNRRSVDGRIEIEGRHLGHIDGRLVNTRVEFEIVIVDGKIEYNRLHVL” as the sequence, how does the protease stability score read?
A: 1.58

Q: With “DEWKEDSRRAIELELRHLQTGDEDLTEKYADPHARVHIGDKEFHGRDHYIETLRRMGIKHVEVREIREQGDFLKMDVHVNVDGRELTVHFVMRKVNGRWRIHMIEVR” as the sequence, how does the protease stability score read?
A: 1.11

Q: Which protease stability score does the source give for “DEEEREARDAVHRFDKDVVTGDEDRLRELMDPNVKLDIGDKEIIGREYMVSFWRELVKHIRIHSITIKRVEVYDGRIHVHQEVTLNIDGQHVTIKSHTIALKVNGKWTWTRFSMT” here?
A: 1.06

Q: For “SEDERVAEELLRLLSEYLKTGDEQIVTELLDPHTKMIIDGQTHIGMDVWQMLRKHIRVKNSDVHDVKFVDGRMHLDMRVHGHVNGVDVTRRLHVHTHKINGRWHIKEIHIE”, which protease stability score is on record?
A: 1.46

Q: With “SEEEKDNKLAIHLTMEILRTGDEEHSKKMIDPDARHQQGDKELHGMEEVSTEIMEIWRRYKGVKFEVKRVHMQGEFIKIKVDLHVNGQTLDVIIVLYKVDGRWTIHSIHVH” as the sequence, how does the protease stability score read?
A: 1.48

Q: Which protease stability score does the source give for “DEEHKEVREHIETSIQALRTGDWELLSKRMDPHVRVIVGDKHLHGREEAHKMLEEWFKRMGIDHFHIKSIEIQGDKTDVEGHMYFNGVSRDTRLYEVWVNGRLKSLTIEMR” here?
A: 0.626

Q: Which protease stability score does the source give for “TEDEKLSEDMTQHFIELLFTGDFDKISELADPNVRIHAENRTLVGRESFKRLMKKEIEFFKGARFHIEDLHIYDGRVDIHEIVSYGEFVIRRTIHSHKINGKWLETEVRLG” here?
A: 0.929

Q: Which protease stability score does the source give for “DEEEERVRRIMKEFIESLLTGDFRILTELMDPNARLHVDGVELHGRETMRKFWKDRERELGVENFDAKQRDVRLINGKAHNDGELLINGQVTKWILRVEKVDGRWRLHHIELH” here?
A: 0.231

Q: For “HEEKELVNRSVELSYRVLKTGDEHTLEELLDPDAKTRLNINGKNEKLVGRENVLHIVTWFLDFLGIKHVELRDVRYVGDKVHIDMQIDVNGRHSRWHLIAEKIDGRWFMHSIQVEVH”, which protease stability score is on record?
A: 0.18

Q: For “DEIHQFIEHMTKLLITALYTGDERMLEELADPHVKLDIGDKHSVGRENFVEMMKWLADHIRVRHTDIHDLKIYGEKTRVDMRVDGEVDGQRVEYRVEIFLFVVDGRLKRSSVHFK”, which protease stability score is on record?
A: 1.09

Q: Which protease stability score does the source give for “SEEEHDWRRALKIFLESLTTGDPKSITELVDPNARSDINGVDLHGREEWSKEMNRIKNLTIHDFEIEHISIYDGKAEINGHLDFEFDGVRTKIEVHLIFEKVDGKWVIQSRIVK” here?
A: 0.895

Q: For “SEHEEKSKEASEQMFQILRTGDWHKWLELLDPHYQLEIGDKRFHGMEISSELLRHLLEELGVERVEVYVKHQETQGDKVINDGSVDINGRELRMILYARKVDGRWVLKSMKVK”, which protease stability score is on record?
A: 1.39

Q: For “DEHQKEIKEVVEMMRHAILTGDEETLERQMDPHAKIRINGVDYVGRRYLEILIRRVDHRRIHTRIRHVEIVDGRVITHLEERTVLHVGDKDIHVSHELEFVLLKIDGRWLVTEMIIQ”, which protease stability score is on record?
A: 1.23

Q: For “DEHKEQLRRIFELMLHLFLTGDWKQLWELADPHARFRIDGRDIHGRDNFAEEVKRIVDEWRIHIDPRHIDVFDGVNHVRTDLFFEYDGRKLRHHTRVINIVVDGRLKEVEFRIE”, which protease stability score is on record?
A: 1.36

Q: With “DEDEEAVRHVVEEWFKFLLTGDEESFEKMFDPSARLIIGDKHYHGRDLLSHVLRELRFKEHRIHDMEIRVVNGKAEVIIHGHEVGIWNGVESESHSEIIIIIDKYDGRWHFHSVEIIFR” as the sequence, how does the protease stability score read?
A: 2

Q: With “SEHDEHIEHLLKEIIEDIETGDWHHWRHLADPHTRMEVGDKEKHGWKVYFEILHRYRGARLEFKSVDVQGDKIHVETHVHVNGRSFDTELRFYIVNGKMQEVIIQFR” as the sequence, how does the protease stability score read?
A: 0.85

Q: For “DELEEDVRSSLKVLLHSHRTGNEELNEKMADPNARVTVDGVEFHGREEMVHWISHIRVERFILRSVHFQGDKLHIDGESDGVVNGRRWRRRTHIIELKVDGKWVLKSLIFE”, which protease stability score is on record?
A: 1.46

Q: Which protease stability score does the source give for “SEEEKDATDMLEHYIRSLLTGDEHLWRELADPNVKTEIDGVEMIGRESWRILVERLGVDHSDVEDIDFRFYDGRLNVRVKTRHHVNGRTFETELIVIIEKINGRWRVTQIEIRIK” here?
A: 2.5

Q: For “SELEHMLREVLHLLYESLETGDEELLETLVDPRMRLYINGQLIHGMDLAVEIELRRSREMRFRDWKIHSIHVQGNKAFMDVRHVGQINGVHISLEHEILIHKINGRWTIEERITK”, which protease stability score is on record?
A: 0.43

Q: With “DEEEEHSKLADEEMLHNLLTGNEEHINKMADPNVRIVIGDKELHGMERWREEMRFFKGARIEIKRSRIFTQGDKMHSEVDGTLNFNGRRVEILIVLVVRKVNGRWRIEMISYHIV” as the sequence, how does the protease stability score read?
A: 1.57

Q: Which protease stability score does the source give for “SEEEELSEIASRITIEILKTGDEHMLHELADPNARLDVNGVESHGRESVVKSFRMLGVKHWTLRDVKVVDGRVWIHGELHVDGKTRRLILIVEKINGRWVMEEIRIG” here?
A: 0.817

From the NTF2 design screens of Basanta et al. (2020)
